Data taken from CN104231083A (GMAX BIOPHARM CO LTD, dated 2014).

Biological target: T1, 人胰高血糖素受体 (human glucagon receptor) (human, UniProt P47871 26-477)
T1 construct: Overexpressed on stably transfected CHO-DHFR- cells; also called hGCGR; GCGR
Assay: flow cytometry, hybridoma supernatant on CHO-DHFR-hGCGR cells

T1 sequence (P47871 26-477 limits assumed): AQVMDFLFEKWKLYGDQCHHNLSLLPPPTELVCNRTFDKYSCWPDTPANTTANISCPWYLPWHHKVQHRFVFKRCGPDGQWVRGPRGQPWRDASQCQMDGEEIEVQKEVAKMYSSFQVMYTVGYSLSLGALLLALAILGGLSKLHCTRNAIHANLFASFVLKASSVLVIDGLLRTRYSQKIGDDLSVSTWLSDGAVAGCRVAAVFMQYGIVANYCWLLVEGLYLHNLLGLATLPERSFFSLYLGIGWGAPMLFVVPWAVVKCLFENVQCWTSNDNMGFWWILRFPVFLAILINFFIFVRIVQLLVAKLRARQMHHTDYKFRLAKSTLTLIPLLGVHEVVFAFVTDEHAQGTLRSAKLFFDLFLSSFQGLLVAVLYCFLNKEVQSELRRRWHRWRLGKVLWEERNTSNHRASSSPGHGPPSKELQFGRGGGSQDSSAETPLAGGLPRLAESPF

Row | binding result | Binder
1 | binds | 单克隆抗体A-3 (antibody, V domains shown, Mouse monoclonal antibody; Tested as hybridoma supernatant (FACS) and as purified antibody / antibody supernatant (cAMP assay); also called L3H3) VH: EVKLVESGGGLVQPGGSRKLSCAASGFPFSDYGLAWFRQAPGKGPEWVAFISNLAYSTYYADTVTGRFTISRENAKNTLFLEMSSLRSEDTAMYYCARDRGLFDYWGQGTTLTVSS VL: DVVMTQIPLSLPVSLGDQASISCRSSQSLVHSNGNTYLHWYLQKPGQSPKLLIYKVSNRFSGVPDRFSGSGSGTDFTLKISRVEAEDLGVYFCSQSTHVPPYTFGGGTKLEIKR
2 | binds | 单克隆抗体A-1 (antibody, V domains shown, Mouse monoclonal antibody; Tested as hybridoma supernatant (FACS) and as purified antibody / antibody supernatant (cAMP assay); also called L1H1) VH: QIQLVQSGPELKKPGETVKISCKASGYTFTNYGMNWVKQAPGKGLKWMGWINTNTGEPTYVEEFKGRFAFSLETSDSTAYLQINNLKNEDTATYFCANLYWGQGTTLTVSS VL: DVLMTQTPLSLPVSLGDQASISCRSSQNILHSNGNTYLEWYLQKPGQSPKLLIFKVSNRFSGVPDRFSGSGSGTDFTLKISRVEAEDLGVYYCFQGSHVPWTFGGGTKLEIK
3 | binds | 单克隆抗体A-2 (antibody, V domains shown, Mouse monoclonal antibody; Tested as hybridoma supernatant (FACS) and as purified antibody / antibody supernatant (cAMP assay); also called L2H2) VH: QIQLVQSGPELKKPGETVKISCKASGYTFTNYGMNWVKQAPGKGLKWMGWINTYNGEPTYADDFKGRCAFFLETSASTAYLQLNNLKNEDTATYFCTREYYISNYGAMDYWGQGTSVTVSS VL: DIQMTQTTSSLSASLGDRVTISCRASQDISNYLNWYQQKPDGTVKLLIYYTSRLHSGVPSRFSGSGSGADYSLTIANLDQEDIATYFCQQGILFPLTFGAGTKLELK
